Experimental data reported in paper PMC10373542.

Molecular target: SARS-CoV-2 WA-1 stabilized S trimer, HexaPro (SARS-CoV-2) (UniProt P0DTC2)
Test: BLI

CR3022 monoclonal antibody
fold increase of binding when S protein is bound to WRAIR-2063: 6 fold
